Test results published in US20220041717A1 (AFFIMED, published 2022).
Each block holds one binder with its values, some of them ahead of it.

How the values were obtained:
[1] = target: CD16A (FcgammaRIIIA) on primary human NK-cells (human) (UniProt P08637); experiment: cell-based or functional assay
[2] = target: CD16A (FcgammaRIIIA) on primary human NK-cells (human) (UniProt P08637); experiment: flow cytometry, titration on primary human NK-cells at 37 C, buffer; detection with anti-His mAb
[3] = target: CD16A (FcgammaRIIIA) on primary human NK-cells (human) (UniProt P08637); experiment: flow cytometry titration on primary human NK-cells, 37 C; detection with anti-His mAb, FITC goat anti-mouse IgG
[4] = target: T1, CD16A (FcgammaRIIIA) on primary human NK-cells (human, UniProt P08637 17-208); experiment: flow cytometry, titration on primary human NK-cells at 37 C in presence of 10 mg/mL polyclonal human IgG (competitor)
T1 construct: The assays used primary human NK-cells
T1 sequence (P08637 17-208): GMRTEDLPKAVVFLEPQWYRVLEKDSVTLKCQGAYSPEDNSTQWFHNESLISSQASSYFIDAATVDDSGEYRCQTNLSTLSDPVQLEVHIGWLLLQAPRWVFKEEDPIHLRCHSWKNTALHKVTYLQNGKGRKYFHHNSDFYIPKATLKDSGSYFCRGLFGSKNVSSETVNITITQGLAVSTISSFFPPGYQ

[5] = target: T2, B-cell maturation antigen (BCMA) on myeloma cell lines (human, UniProt Q02223 1-184); experiment: flow cytometry titration on NCI-H929 cells; detection with CD16A-mFc.67/anti-human-FITC
T2 construct: whole, on cells; also called CD269; TNFRSF17
T2 sequence (looked up): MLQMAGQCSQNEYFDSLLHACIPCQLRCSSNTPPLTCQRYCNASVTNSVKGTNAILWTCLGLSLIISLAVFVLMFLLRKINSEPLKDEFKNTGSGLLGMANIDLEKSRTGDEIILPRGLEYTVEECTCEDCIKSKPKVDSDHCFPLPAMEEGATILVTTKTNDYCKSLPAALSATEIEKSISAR
Procedure: (§1) Antibody binding was quantified by detection with CD16A-mFc.67/anti-human-FITC and flow cytometry. control antibodies anti-BCMA (ANC3B1), anti-CD38 (HB7) and anti-CS1 (235614) were added at saturating concentrations and detected by anti-mouse-Fc-FITC (ctrl.)

[6] = target: T1, CD16A (FcgammaRIIIA) on primary human …; experiment: flow cytometry titration on primary human NK-cells, 37 C; detection with BCMA(1-54)-GCN4-His, anti-His mAb, FITC goat anti-mouse IgG
Procedure: (§2) Method: Serial dilutions of anti-CD16A scFv are added to primary human NK-cells at 37° C. for 45 min followed by detection of antibody binding on ice.

[7] = target: T1, CD16A (FcgammaRIIIA) on primary human …; experiment: flow cytometry titration on primary human NK-cells, 37 C, buffer without IgG; detection with BCMA(1-54)-GCN4-His, anti-His mAb, FITC goat anti-mouse IgG
[8] = target: T1, CD16A (FcgammaRIIIA) on primary human …; experiment: cell-based or functional assay
[9] = target: T1, CD16A (FcgammaRIIIA) on primary human …; experiment: flow cytometry, titration on primary human NK-cells at 37 C, buffer; apparent affinity
Procedure: as §2

[10] = target: T2, B-cell maturation antigen (BCMA) on …; experiment: flow cytometry, titration on MM.1S cells; detection with CD16A-mFc.67/anti-human-FITC
Procedure: as §1

[11] = target: T2, B-cell maturation antigen (BCMA) on …; experiment: flow cytometry, titration on NCI-H929 cells; detection with CD16A-mFc.67/anti-human-FITC
Procedure: as §1

[12] = target: T2, B-cell maturation antigen (BCMA) on …; experiment: flow cytometry titration on MM.1S cells; detection with CD16A-mFc.67/anti-human-FITC
Procedure: as §1

[13] = target: T1, CD16A (FcgammaRIIIA) on primary human …; experiment: flow cytometry titration on primary human NK-cells, 37 C, in presence of 10 mg/mL polyclonal human IgG; detection with BCMA(1-54)-GCN4-His, anti-His mAb, FITC goat anti-mouse IgG
[14] = target: T2, B-cell maturation antigen (BCMA) on …; experiment: cell-based or functional assay
[15] = target: T2, B-cell maturation antigen (BCMA) on …; experiment: flow cytometry, titration on RPMI-8226 cells; detection with CD16A-mFc.67/anti-human-FITC
Procedure: as §1

[16] = target: T1, CD16A (FcgammaRIIIA) on primary human …; experiment: flow cytometry, titration on primary human NK-cells at 37 C, buffer; apparent affinity; detection via BCMA(1-54)-GCN4-His/anti-His
[17] = target: T1, CD16A (FcgammaRIIIA) on primary human …; experiment: flow cytometry on primary human NK-cells, with against without 10 mg/mL polyclonal human IgG
[18] = target: T2, B-cell maturation antigen (BCMA) on …; experiment: cell-based or functional assay; remark: listed apart in the source
CS1 on myeloma cells [19] = target: T3, CS1 on myeloma cells (UniProt Q9NQ25 23-335, limits assumed); experiment: flow cytometry, titration on MM.1S cells; detection with CD16A-mFc.67/anti-human-FITC
T3 construct: whole, on cells
Procedure: as §1

CS1 on myeloma cells [20] = target: T3, CS1 on myeloma cells; experiment: flow cytometry, titration on NCI-H929 cells; detection with CD16A-mFc.67/anti-human-FITC
Procedure: as §1

CS1 on myeloma cells [21] = target: T3, CS1 on myeloma cells; experiment: cell-based or functional assay
CS1 on myeloma cells [22] = target: T3, CS1 on myeloma cells; experiment: cell-based or functional assay; remark: listed apart in the source

Chain of CD16A (FcgammaRIIIA) on primary human NK-cells (human) (P08637 17-208): as the sequence (P08637 17-208) above

EC50 of antibody-induced NK-cell-NK-cell lysis (4 h calcein release) [1]: 0.659 nM
B1: Anti-CD16A diabody (protein, not shown: small tags and cut ends)
VL: SYVLTQPSSVSVAPGQTATISCGGHNIGSKNVHWYQQRPGQSPVLVIYQDNKRPSGIPERFSGSNSGNTATLTISGTQAMDEADYYCQVWDNYSVLFGGGTKLTVL
VH: QVQLVQSGAEVKKPGESLKVSCKASGYTFTSYYMHWVRQAPGQGLEWMGAIEPMYGSTSYAQKFQGRVTMTRDTSTSTVYMELSSLRSEDTAVYYCARGSAYYYDFADYWGQGTLVTVSS
modifications: diabody linker not stated

Kd [2]: 12.2 nM
EC50 (read off the curve) [3]: 10 nM
B2: Anti-CD16A scFv (scFv, V domains shown, part only)
VL: B1 VL
VH: B1 VH

Kd [4]: 3.6 nM
EC50 (read off the curve) [5]: ~20 nM
EC50 (read off the curve) [6]: ~1 nM
EC50 (read off the curve) [7]: ~1 nM
EC50 of NK-cell-mediated lysis of BCMA+ NCI-H929 cells (4 h calcein release), 10 mg/mL polyclonal human IgG [8]: 0.0761 nM
EC50 of NK-cell-mediated lysis of BCMA+ NCI-H929 cells (4 h calcein release), buffer [8]: 0.0162 nM
Fold-loss in potency (EC50 with 10 mg/mL IgG against buffer) [8]: 4.7 fold
Kd [9]: 1.2 nM
Kd [10]: 11.5 nM
Kd [11]: 27.7 nM
EC50 (read off the curve) [12]: ~10 nM
EC50 (read off the curve) [13]: ~4 nM
EC50 of NK-cell-mediated lysis of MM.1S cells (4 h calcein release) [14]: 0.0037 nM
EC50 of NK-cell-mediated lysis of NCI-H929 cells (4 h calcein release) [14]: 0.0091 nM
EC50 of NK-cell-mediated lysis of RPMI-8226 cells (4 h calcein release) [14]: 0.0623 nM
Kd [15]: 26.7 nM
Kd [16]: 1.2 nM
fold-change (KD with 10 mg/mL IgG against KD in buffer) [17]: 3 fold
EC50 of NK-cell-mediated lysis of primary myeloma cells from a pleural effusion (multiple myeloma; 4 h 51Cr release) [18]: 0.004 nM
EC50 of NK-cell-mediated lysis of primary myeloma cells from peripheral blood (plasma cell leukemia; 4 h 51Cr release) [18]: 0.0063 nM
B3: BCMA/CD16A-directed tandem diabody in variant 4 (bispecific antibody)
chain: QVQLVQSGAEVKTPGEPLKISCKGSGYSFTDSWIGWVRQMPGKGLEWMGIIYAGDSDARYSPSFQGQVTISADTSTSTVYLQWSSLKASDTAMYYCARNFGDHWGQGTLVTVSSGGSGGSGGSGGSSYVLTQPSSVSVAPGQTATISCGGHNIGSKNVHWYQQRPGQSPVLVIYQDNKRPSGIPERFSGSNSGNTATLTISGTQAMDEADYYCQVWDNYSVLFGGGTKLTVLGGSQVQLVQSGAEVKKPGESLKVSCKASGYTFTSYYMHWVRQAPGQGLEWMGAIEPMYGSTSYAQKFQGRVTMTRDTSTSTVYMELSSLRSEDTAVYYCARGSAYYYDFADYWGQGTLVTVSSGGSGGSGGSGGSSYELTQSPSVSVAPGQTARIFCGGDNIGSKNVHWYQQKPGQAPVLVIYRDSNRPSGIPERFSGANSENTATLTISRAQAGDEADYYCQVWDSRTYVFGTGTKLTVL
notes: also called tandem diabody variant 4; Tandem diabody (v4)

Kd (CS1 on myeloma cells [19]): 35.7 nM
Kd (CS1 on myeloma cells [20]): 36 nM
EC50 of NK-cell-mediated lysis of MM.1S cells (4 h calcein release) (CS1 on myeloma cells [21]): 0.153 nM
EC50 of NK-cell-mediated lysis of NCI-H929 cells (4 h calcein release) (CS1 on myeloma cells [21]): 0.394 nM
EC50 of NK-cell-mediated lysis of primary myeloma cells (multiple myeloma; 4 h 51Cr release) (CS1 on myeloma cells [22]): 0.145 nM
EC50 of NK-cell-mediated lysis of primary myeloma cells (plasma cell leukemia; 4 h 51Cr release) (CS1 on myeloma cells [22]): 0.0782 nM
B4: elotuzumab (antibody, V domains shown)
VH: EVQLVESGGGLVQPGGSLRLSCAASGFDFSRYWMSWVRQAPGKGLEWIGEINPDSSTINYAPSLKDKFIISRDNAKNSLYLQMNSLRAEDTAVYYCARPDGNYWYFDVWGQGTLVTVSS
VL: DIQMTQSPSSLSASVGDRVTITCKASQDVGIAVAWYQQKPGKVPKLLIYWASTRHTGVPDRFSGSGSGTDFTLTISSLQPEDVATYYCQQYSSYPYTFGQGTKVEIK
